The text below walks through data of publication PMC7188400 (mAbs, 2020).

In assay [1] the target is human BDNF (Sino Biological Inc., Catalog 50240-MNAS) (Homo sapiens, UniProt P23560). Nature of the assay: SPR. (In SPR one partner is held on a chip, and binding of the other changes the refractive index at the surface.)
The target in assay [2] is human BDNF (KinExA; supplier not stated) (Homo sapiens, UniProt P23560). The experiment in a line: kinetic exclusion assay. A general note: In KinExA the mixture passes briefly over coated beads that capture the unbound partner.
Sequence of human BDNF (KinExA; supplier not stated) (P23560 129-247): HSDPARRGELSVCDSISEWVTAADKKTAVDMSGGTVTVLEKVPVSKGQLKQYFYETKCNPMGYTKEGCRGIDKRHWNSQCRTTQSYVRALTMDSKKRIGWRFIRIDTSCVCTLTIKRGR

Sequence of human BDNF (Sino Biological Inc., Catalog 50240-MNAS) (P23560 129-247): as above

B1: R3bH01, parental chimeric chicken-human IgG1 anti-BDNF antibody (antibody, V domains shown)
VH: AVTLDESGGGLQTPGGGLSLVCKASGFDFSSYDMHWVRQAPGKGLEWVAGIDDGGSDTYYGSAVKGRATISRDNGQSTVRLQLNNLRAEDTGTYYCAKSSYDISWNGHVENIDAWGHGTEVIVSS
VL: ALTQPTSVSTNLGGTVEITCSGAGSGYGYGWFQQKSPGSAPVTVIYSNDKRPSDIPSRFSGSKSGSTGTLTITGVQAEDEAVYFCGTYDSTDAGYAIFGAGTTLTVL
Regarding B1, the Kd – broadly, the constant that tells how readily two partners part at equilibrium – in assay [1] was 34.4 ± 5.43 nM.

B2: B30, humanized and affinity-optimized anti-BDNF IgG1 (antibody, V domains shown)
VH: not shown
VL: SSELTQPPAVSVALGQTVRITCSGAGSGYGYGWYQQKPGQAPVTVIYSNDKRPSGIPDRFSGSSSGNTASLTITGAQAEDEADYYCGTYVSAYYGYAIFGGGTKLTVL
On to B2, for which the Kd in assay [1] came out at 0.12 ± 0.01 nM. Against the preceding molecule, the Kd is about 290-fold lower.

B3: B30 Fab (Fab, V domains shown)
VH: not shown
VL: SSELTQPPAVSVALGQTVRITCSGAGSGYGYGWYQQKPGQAPVTVIYSNDKRPSGIPDRFSGSSSGNTASLTITGAQAEDEADYYCGTYVSAYYGYAIFGGGTKLTVL
B3 came in with a Kd in assay [2] of 0.00106 nM.
